From publication PMC6281582

Target: FOXO3a (UniProt O43524)
Test: IP of FOXO3a, anti-Flag blot for SirT6
Conditions: reference: WT-SirT6; sites S338

Substance: SirT6 (from UniProt Q8N6T7) S338A
- binding against the reference: lost
